{"source": "paper PMC7162832", "about": "“An unusual metal-bound 4-fluorothreonine transaldolase from Streptomyces sp. MA37 catalyses promiscuous transaldol reactions” (Applied Microbiology and Biotechnology, 2020)", "key": {"[1]": {"biological_target": "4-fluorothreonine transaldolase from Streptomyces sp. MA37 (Streptomyces sp. MA37) (UniProt W0W999)", "experiment": "SEC; ENrich High-Resolution Size Exclusion Column (Bio-Rad, 25 mL), isocratic elution; oligomeric state estimated from the retention time"}, "FTaseMA [2]": {"biological_target": "T1, FTaseMA (Streptomyces sp. MA37, UniProt W0W903)", "experiment": "biochemical", "set-up": "gene flFT1", "text": "acetaldehyde release, DNPH derivatisation and HPLC on FTaseMA"}, "FTaseMA [3]": {"biological_target": "T1, FTaseMA", "experiment": "DNPH derivatisation and HPLC", "assay_type": "biochemical", "set-up": "gene flFT1; full-length (SHMT-like S domain plus aldolase-like A domain), N-His6, from MA37 genomic DNA in pGM1190 (pMBC001), expressed in Streptomyces lividans 66; dimer"}, "CC(C)C=O": {"tested_on": "CC(C)C=O", "experiment": "purified protein", "conditions": "L-threonine 5 mM, PLP 0.1 mM, Tris-HCl pH 7.5"}, "O=CCCl": {"tested_on": "O=CCCl", "experiment": "purified protein", "conditions": "L-threonine 5 mM, PLP 0.1 mM, Tris-HCl pH 7.5"}, "O=CCF": {"tested_on": "O=CCF", "experiment": "purified protein", "conditions": "apparent, FAd 0.12-2.4 mM, L-threonine 20 mM (methods: 0.5-20 mM aldehyde, 5 mM L-Thr), PLP 0.1 mM, Tris-HCl pH 7.5"}, "O=CCc1ccccc1": {"tested_on": "O=CCc1ccccc1", "experiment": "purified protein", "conditions": "L-threonine 5 mM, PLP 0.1 mM, Tris-HCl pH 7.5"}}}
{"molecule": "4-fluorothreonine transaldolase from Streptomyces sp. MA37 (from UniProt W0W999 1-299) (enzyme)", "values": [{"measurement": "stoichiometry N", "setting": "[1]", "value": 2}]}
{"molecule": "C[C@@H](O)[C@H](N)C(=O)O", "note": "[compound 6, L-threonine]", "values": [{"measurement": "Km", "setting": "FTaseMA [2]", "value": "1180 ± 7", "unit": "µM"}]}
{"molecule": "O=CCO", "note": "[compound 9, glycolaldehyde]", "values": [{"measurement": "Km", "setting": "FTaseMA [3]", "value": "357 ± 10", "unit": "µM"}]}
{"molecule": "CCC=O", "note": "[compound 11, propanal]", "values": [{"measurement": "Km", "setting": "FTaseMA [3]", "value": "1450 ± 179", "unit": "µM"}]}
{"molecule": "C[C@H](O)[C@H](N)C(=O)O", "note": "[compound 19, L-allo-threonine]", "values": [{"measurement": "Km", "setting": "FTaseMA [2]", "value": "1180 ± 6", "unit": "µM"}]}
{"molecule": "FTaseMA (Streptomyces sp. MA37)", "values": [{"measurement": "Km", "setting": "CC(C)C=O", "value": "535 ± 78", "unit": "µM"}, {"measurement": "kcat", "setting": "CC(C)C=O", "value": 0.0135, "unit": "s⁻¹"}, {"measurement": "kcat/Km", "setting": "CC(C)C=O", "value": 25.4, "unit": "M⁻¹ s⁻¹"}, {"measurement": "Km", "setting": "O=CCCl", "value": "1350 ± 1", "unit": "µM"}, {"measurement": "kcat", "setting": "O=CCCl", "value": 0.0238, "unit": "s⁻¹"}, {"measurement": "kcat/Km", "setting": "O=CCCl", "value": 17.6, "unit": "M⁻¹ s⁻¹"}, {"measurement": "Km", "setting": "O=CCF", "value": "241 ± 2", "unit": "µM"}, {"measurement": "kcat", "setting": "O=CCF", "value": 0.03, "unit": "s⁻¹"}, {"measurement": "kcat/Km", "setting": "O=CCF", "value": 125, "unit": "M⁻¹ s⁻¹"}, {"measurement": "Km", "setting": "O=CCc1ccccc1", "value": "358 ± 6", "unit": "µM"}, {"measurement": "kcat", "setting": "O=CCc1ccccc1", "value": 0.00975, "unit": "s⁻¹"}, {"measurement": "kcat/Km", "setting": "O=CCc1ccccc1", "value": 27.2, "unit": "M⁻¹ s⁻¹"}]}
